Key:
Fc tagged human PDL1 = target: T1, Fc tagged human PDL1 (human, UniProt Q9NZQ7 19-239); test: SPR
T1 construct: Bought (Sino Biological, cat. 10084-H02H); captured on the SPR chip; also called PDL1-Fc chimeric protein
Procedure, shortened: (§1)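 Kinetics were fitted with a one-to-one Langmuir model to give apparent ka, kd and KD. Binders at 0.12-90 nM (three-fold series) flowed 3 min, with 10 min dissociation and 3 M MgCl₂ regeneration, on a Biacore T200.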

Fc tagged human CD137 = target: T2, Fc tagged human CD137 (human, UniProt Q07011 24-186); test: SPR
T2 construct: also called CD137-Fc chimeric protein
Procedure, shortened: as §1

[1] = target: T3, CD137 on Jurkat NFkB reporter cells (human, UniProt Q07011 24-255); test: cell-based or functional assay
biotinylated human PDL1 [2] = target: T4, biotinylated human PDL1 (human, UniProt Q9NZQ7 19-238, limits assumed, biotinylated); test: competition ELISA PD-1/PDL1
T4 construct: also called biotinylated PDL1

biotinylated human PDL1 [3] = target: T4, biotinylated human PDL1; test: competition ELISA B7.1/PDL1
Procedure, shortened: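 Test mixtures containing biotinylated human PDL1 were pre-incubated 1 h at room temperature, then incubated 1.5 h on the plate under agitation. Bound PDL1 detected with 10 ng/ml streptavidin-polyHRP40 and TMB, stopped at 6 min with HCl, read at 450 nm minus 690 nm. IC₅₀ from 4PL fit.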

human serum albumin = target: T5, human serum albumin (human, UniProt P02768 25-609); test: SPR, SA coupled to chip, pH 5.5
T5 construct: Coupled directly to the CM5 chip; also called HSA; human SA
Experimental: (§2) Affinity of molecules to serum albumin (SA) of the different species was determined by SPR measurements using a Biacore T200 device (GE Healthcare). SA was directly coupled to a CM5 sensor chip (GE Healthcare) using amine coupling chemistry. […] The assay was run in a 1× PBS-Tween buffer at pH 5.5.

mouse serum albumin = target: T6, mouse serum albumin (mouse, UniProt P07724 25-608); test: SPR, SA coupled to chip, pH 5.5
T6 construct: Coupled directly to the CM5 chip; also called MSA; mouse SA
Experimental: as §2

human PDL1 on cells = human PDL1 on cells (human, UniProt Q9NZQ7 19-290); test: cell-based or functional assay
[4] = target: T3, CD137 on Jurkat NFkB reporter cells; test: cell-based or functional assay; remark: listed apart in the source
[5] = target: cynomolgus CD137-Fc chimeric protein (cynomolgus monkey, UniProt A9YYE7 24-186); test: SPR
Procedure, shortened: as §1

[6] = target: T7, mouse CD137-Fc chimeric protein (mouse, UniProt P20334 24-187, limits assumed); test: SPR
T7 sequence (looked up): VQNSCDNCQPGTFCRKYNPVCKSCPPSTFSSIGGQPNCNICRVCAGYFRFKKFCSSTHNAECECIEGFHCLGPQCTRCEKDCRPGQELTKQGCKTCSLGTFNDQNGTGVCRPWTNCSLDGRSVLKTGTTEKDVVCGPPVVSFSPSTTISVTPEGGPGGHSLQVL
Procedure, shortened: as §1

B1: PRO1186 (other)
chain: DIQMTQSPSSLSASVGDRVTITCQASQSIGTYLAWYQQKPGKAPKLLIYRAFILASGVPSRFSGSGSGTDFTLTISSLQPEDFATYYCQSNFYSDSTTIGPNAFGTGTKVTVLGGGGGSQVQLQESGPGLVKPSETLSLTCKVSGFSFSNSYWICWIRQPPGKGLEWIGCTFVGSSDSTYYANWAKGRVTISVDSSKNQFSLKLSSVTAADTAVYYCARHPSDAVYGYANNLWGQGTLVTVSSGGGGSGGGGSGGGGSGGGGSDIQMTQSPSSLSASVGDRVTITCQASQSINNVLAWYQQKPGKAPKLLIYRASTLASGVPSRFSGSGSGTDFTLTISSLQPEDFATYYCQSSYGNYGDFGTGTKVTVLGGGGGSQVQLQESGPGLVKPSETLSLTCKVSGFSFNSDYWIYWIRQPPGKGLEWIGSIYGGSSGNTQYASWAQGRVTISVDSSKNQFSLKLSSVTAADTAVYYCARGYVDYGGATDLWGQGTLVTVSSGGGGSGGGGSVVMTQSPSSLSASVGDRVTITCQASQIISSRSAWYQQKPGQPPKLLIYQASKLASGVPSRFSGSGSGTDFTLTISSLQPEDFATYYCQCTYIDSNFGAFGGGTKLTVLGGGGGSGGGGSGGGGSGGGGSEVQLVESGGGLVQPGGSLRLSCAASGFSFSSSYWICWVRQAPGKGLEWVGCVFTGDGTTYYASWAKGRFTISRDNSKNTVYLQMNSLRAEDTATYFCARPVSVYYYGMDLWGQGTLVTVSS
notes: trispecific scDb-scFv; also called 38-02-A04 sc01 scDb-i/37-20-B03sc01 scDb-o/23-13-A01-sc03 scFv
Kd (Fc tagged human PDL1): 3.7 pM | koff (Fc tagged human PDL1): 2.3e-05 s⁻¹ | kon (Fc tagged human PDL1): 6.2e+06 M⁻¹ s⁻¹ | Kd (Fc tagged human CD137): 2.6 nM | koff (Fc tagged human CD137): 0.0005 s⁻¹ | IC50 (ng/ml), NFkB reporter, CHO-PD-L1, 24 h, +HSA [1]: 51 ng/mL | IC50 (ng/ml), NFkB reporter, HCC827 + IFNg, 24 h, +HSA [1]: 16.7 ng/mL | max. activation (%), NFkB reporter, CHO-PD-L1, 24 h, +HSA [1]: 152% | rel. IC50 (urelumab/test), NFkB reporter, CHO-PD-L1, 24 h, +HSA [1]: 0.97 fold | rel. IC50 (urelumab/test), NFkB reporter, HCC827 + IFNg, 24 h, +HSA [1]: 1.88 fold | IC50 (biotinylated human PDL1 [2]): 1.74 ng/mL | rel. IC50 (IC50 avelumab/IC50 test) (biotinylated human PDL1 [2]): 1.26 fold | IC50 (biotinylated human PDL1 [3]): 7.81 ng/mL | rel. IC50 (IC50 avelumab/IC50 test) (biotinylated human PDL1 [3]): 1.58 fold | Kd (human serum albumin): 2.9 nM | koff (human serum albumin): 0.00072 s⁻¹ | kon (human serum albumin): 250000 M⁻¹ s⁻¹ | kon (mouse serum albumin): 220000 M⁻¹ s⁻¹ | IC50 (ng/ml), NF-AT potency assay, +HSA (human PDL1 on cells): 10.2 ng/mL | rel. IC50 (avelumab/test), +HSA (human PDL1 on cells): 2.31 fold

B2: PRO951 (bispecific antibody)
chain: DIQMTQSPSSLSASVGDRVTITCQASQSINDYLAWYQQKPGKAPKLLIYKASTLASGVPSRFSGSGSGTDFTLTISSLQPEDFATYYCQQGYIITDIDNVFGTGTKVTVLGGGGGSEVQLVESGGGLVQPGGSLRLSCAASGFSFNNDYDMCWVRQAPGKGLEWIGCIDTGDGSTYYASWAKGRFTISRDNSKNTVYLQMNSLRAEDTAVYYCAREAASSSGYGMGYFDLWGQGTLVTVSSGGGGSGGGGSGGGGSGGGGSIQMTQSPSSLSASVGDRVTITCQSSQSVYDNNWLAWYQQKPGKAPKLLIYRASNLASGVPSRFSGSGSGTDFTLTISSLQPEDFATYYCQGTYLSSNWYWAFGTGTKVTVLGGGGGSQVQLQESGPGLVKPSETLSLTCKVSGFSFSSGYDMCWIRQPPGKGLEWIGCVVAGSVDITYYASWAKGRVTISVDSSKNQFSLKLSSVTAADTAVYYCARKDAYSDAFNLWGQGTLVTVSS
notes: scDb anti-PDL1 x CD137; also called 38-27-C05 sc02 scDb-i/33-03-G02 sc01 scDb-o
EC50, NFkB reporter, CHO-PDL1 [4]: 33.7 ng/mL | kon (Fc tagged human PDL1): 2.2e+06 M⁻¹ s⁻¹ | Kd [5]: 6.9 nM | koff [5]: 0.01 s⁻¹ | kon [5]: 1.5e+06 M⁻¹ s⁻¹ | binding result [6]: no binding | Kd (Fc tagged human CD137): 4.2 nM | IC50 (ng/ml), NFkB reporter, CHO-PD-L1 [1]: 33.7 ng/mL | max. activation (%), NFkB reporter, CHO-PD-L1 [1]: 432% | rel. IC50 (urelumab/test), NFkB reporter, CHO-PD-L1 [1]: 2.35 fold | IC50 (biotinylated human PDL1 [2]): 9.5 ng/mL | rel. IC50 (IC50 avelumab/IC50 test) (biotinylated human PDL1 [2]): 0.15 fold | IC50 (biotinylated human PDL1 [3]): 9.3 ng/mL | rel. IC50 (IC50 avelumab/IC50 test) (biotinylated human PDL1 [3]): 0.78 fold | IC50 (ng/ml), NF-AT potency assay (human PDL1 on cells): 88.5 ng/mL | rel. IC50 (avelumab/test) (human PDL1 on cells): 0.47 fold

Reference: patent US20230192897A1 (NUMAB THERAPEUTICS, published 2023)
